Test results: US7169891B2, “Human pellino polypeptides” (Immunex Corporation, priority 2000, dated 2007)

How the values were obtained:
[1] = tested on: Jun N-terminal kinase, p38 kinase, and ERK signaling; assay: Jun N-terminal kinase, p38 kinase and ERK signaling mediated by IL-1; type: cell-based
[2] = tested on: NF-kB-dependent reporter gene; assay: NF-kB-dependent reporter gene (luciferase) assay in transfected COS cells; type: cell-based, monkey
From the text: (§1) The murine Pellino-1 coding sequence DNA was fused, in frame at the 3′ end, to DNA encoding the FLAG epitope, followed by an in-frame stop codon. This construct was cloned into the mammalian expression vector pDC304 (identical to pDC302, described in U.S. Pat. No. 5,599,905, issued Feb. 4, 1997, except that the early splice region, consisting of splice donor and acceptor sites of the SV40 viral element, has been removed); and transfected into an IL-1-responsive line of COS-7 cells by the DEAE-dextran method.
In order to assay the effect of the Pellino-1-FLAG polypeptide and other forms of Pellino polypeptides on reporter gene activity, a method essentially as described in Born et al., 1998, J. Biol. Cheni. 273: 29445–29450 (which is incorporated by reference herein) can be used. As one example of this method, Cos7 cells were transiently transfected by the DEAE-dextran method as described (Cosman et al., 1984, Nature 312: 768–771, which is incorporated by reference herein), using 150 ng of the Pellino polypeptide expression construct and 700 ng of the reporter plasmid per 45,000 cells. Two days post-transfection, cells were stimulated with 10 ng/ml IL-1 or 40 ng/ml IL-18 (PeproTech, Inc.) for 4 hours. Cells were lysed and luciferase activity assessed using Reporter Lysis Buffer and Luciferase Assay Reagent (Promega Corp.). IL-8 promoter-reporter and NFkB-dependent reporter constructs may be used as reporter plasmids. Alternatively, the effect of Pellino polypeptide expression may be assayed in COS-1 cells. In an alternative preferred method, COS7 cells were grown in 12-well dishes as described above. The cells were transiently transfected with Pellino test plasmid, 50 ng of reporter plasmid DNA, and empty vector, as required, to a total of 1 micrograms of total DNA per well. After 24 hours, stimulating agents were added in a small amount (less than 0.5% final volume) of medium or dimethyl sulfoxide, and the cells were re-incubated for 5 hours. Cells were lysed in luciferase Reporter Lysis Buffer (Promega, Madison Wis., 0.25 ml per well) and luciferase activity was measured in a EG & G/Berthold luminometer after addition of Luciferase Assay Reagent (Promega) according to the supplier's instructions. All results were normalized to total protein content of the lysates as measured using the micro-BCA assay (Pierce, Rockford, Ill).

[3] = tested on: IL-8 promoter-reporter gene; assay: IL-8 promoter-reporter gene assay in transfected COS cells; type: cell-based, monkey; conditions: COS-1 cells; presence and absence of TNF-alpha; compared to vector-only control
From the text: as §1
In order to assay the effect of the Pellino-1-FLAG polypeptide and other forms of Pellino polypeptides on reporter gene activity, a method essentially as described in Born et al., 1998, J. Biol. Cheni. 273: 29445–29450 (which is incorporated by reference herein) can be used. […] Cells were lysed and luciferase activity assessed using Reporter Lysis Buffer and Luciferase Assay Reagent (Promega Corp.). […] Cells were lysed in luciferase Reporter Lysis Buffer (Promega, Madison Wis., 0.25 ml per well) and luciferase activity was measured in a EG & G/Berthold luminometer after addition of Luciferase Assay Reagent (Promega) according to the supplier's instructions. All results were normalized to total protein content of the lysates as measured using the micro-BCA assay (Pierce, Rockford, Ill).

| Jun N-terminal kinase, p38 kinase, and ERK signaling mediated by IL-1 [1] | Molecule | Effect on Reporter Gene ([2]; NF-kB-dependent reporter gene activity, form of murine Pellino-1 expressed in COS cells) | IL-1-induced NFkB-dependent reporter gene activity ([2]; preliminary experiment, COS-7 cells) | NFkB-dependent reporter gene activity ([2]; COS cells transfected with high concentrations of expressing construct) | IL-8 promoter-reporter gene activity [3] |
| --- | --- | --- | --- | --- | --- |
| moderately augmented | wild-type-FLAG: unaltered murine Pellino-1 (SEQ ID NO:2) fused to the FLAG epitope (protein, listed as Mus musculus, FLAG tag) MFSPDQENHPSKAPVKYGELIVLGYNGSLPNGDRGRRKSRFALFKRPKANGVKPSTVHIACTPQAAKAISNKDQHSISYTLSRAQTVVVEYTHDSNTDMFQIGRSTESPIDFVVTDTVPGSQSNSDTQSVQSTISRFACRIICERSPPFTARIYAAGFDSSKNIFLGEKAAKWKTSDGQMDGLTTNGVLVMHPRNGFTEDSKPGIWREISVCGNVFSLRETRSAQQRGKMVEIETNQLQDGSLIDLCGATLLWRTAEGLSHTPTVKHLEALRQEINAARPQCPVGFNTLAFPSMKRKDVVDEKQPWVYLNCGHVHGYHNWGNKEERDGKDRECPMCRSVGPYVPLWLGCEAGFYVDAGPPTHAFSPCGHVCSEKTTAYWSQIPLPHGTHTFHAACPFCAHQLAGEQGYIRLIFQGPLD | Stimulatory | partially inhibit |  |  |
|  | wild-type Pellino-1: wild-type Pellino-1 polypeptide expressed in COS cells; murine sequence SEQ ID NO:2 (protein, listed as Mus musculus) MFSPDQENHPSKAPVKYGELIVLGYNGSLPNGDRGRRKSRFALFKRPKANGVKPSTVHIACTPQAAKAISNKDQHSISYTLSRAQTVVVEYTHDSNTDMFQIGRSTESPIDFVVTDTVPGSQSNSDTQSVQSTISRFACRIICERSPPFTARIYAAGFDSSKNIFLGEKAAKWKTSDGQMDGLTTNGVLVMHPRNGFTEDSKPGIWREISVCGNVFSLRETRSAQQRGKMVEIETNQLQDGSLIDLCGATLLWRTAEGLSHTPTVKHLEALRQEINAARPQCPVGFNTLAFPSMKRKDVVDEKQPWVYLNCGHVHGYHNWGNKEERDGKDRECPMCRSVGPYVPLWLGCEAGFYVDAGPPTHAFSPCGHVCSEKTTAYWSQIPLPHGTHTFHAACPFCAHQLAGEQGYIRLIFQGPLD |  |  | inhibitory effect | stimulates |
